Experimental data published in PMC5535997 (International Journal of Molecular Sciences, 2017).

Target: influenza A virus nucleoprotein (NP), strain A/WSN/33, from infected MDCK cells (Influenza A virus A/WSN/1933 (H1N1), [35S]Met/Cys radiolabel)
Experiment: pull-down
Conditions: partners not purified

Chain of influenza A virus nucleoprotein (NP), strain A/WSN/33, from infected MDCK cells (Influenza A virus A/WSN/1933 (H1N1), [35S]Met/Cys radiolabel) (P15682 whole entry): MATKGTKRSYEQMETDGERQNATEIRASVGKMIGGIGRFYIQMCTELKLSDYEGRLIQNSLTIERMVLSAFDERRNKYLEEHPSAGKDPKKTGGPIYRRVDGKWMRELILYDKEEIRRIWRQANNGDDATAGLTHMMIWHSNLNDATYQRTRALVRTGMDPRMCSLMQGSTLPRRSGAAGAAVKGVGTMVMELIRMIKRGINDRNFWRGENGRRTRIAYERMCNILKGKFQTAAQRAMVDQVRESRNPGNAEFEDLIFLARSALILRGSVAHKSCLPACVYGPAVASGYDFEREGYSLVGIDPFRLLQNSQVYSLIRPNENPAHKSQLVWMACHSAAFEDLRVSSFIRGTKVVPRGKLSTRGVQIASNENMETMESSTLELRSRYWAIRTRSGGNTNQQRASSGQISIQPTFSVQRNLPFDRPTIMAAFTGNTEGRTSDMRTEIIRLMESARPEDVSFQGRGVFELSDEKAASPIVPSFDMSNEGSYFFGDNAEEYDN

Row | Binder | binding result
1 | D4 displayed on S. aureus RN4220 (VHH, also called anti-NP-VHH5) VHH: QLQLVETGGGLVQSGGSLRLSCAASGFTLGSYAIGWYRQAPGKERERVSCISSSGISTNYADPVKGRFTISRDNAKNTVYLQMDSLKPEDTAVYYCAADSFFCLGPNMDYWGKGTLVIVSS | binds
2 | VHH54 displayed on S. aureus RN4220 (VHH, also called anti-NP-VHH2) VHH: QVQLQESGGGLVQAGGSLRLSCAASGRTLSSYAMGWFRQAPGKERELVSAISWSGLSTYYEDSVKGRFTISRDNAKNTMYLQMNSLKPEDTAIYYCAADIGWPLRADSGSWGQGTQVTVSS | binds
3 | C8 displayed on S. aureus RN4220 (VHH) VHH: QVHSWSLGGGLVQSGGSLTLSCAASGFTFTNAYMSWVRQGPGKEPEWVSGINARGVGTRYADFVKGRFTISRDNAKTILYLQMNSLKPEDTALYYCASDFGPSGGRWDPPRRRGQGTWVTVSS | binds
4 | VHH52 displayed on S. aureus RN4220 (VHH, also called anti-NP-VHH1) VHH: QVQLQESGGGLVQAGGSLRLTCALSERTSTSYAQGWFRQPPGKEREFVASLRTHDGNTHYTDSVKGRFTISRDNAENTLYLQMNSLKTEDTAVYYCAASLGYSGAYASGYDYWGQGTQVTVSS | binds
5 | VHH62 displayed on S. aureus RN4220 (VHH, also called anti-NP-VHH3) VHH: QVQLVESGGGLVQPGGSLRLSCAASGFTLDGYAIGWFRQAPGKEREGVSCISSSGKSTNYADSVKGRFTISRDNQQNTVYLQMNSLKPEDTAVYYCAATVGLFCVGGTYGMDYWGKGTLVKMSS | binds
6 | VHH54.1 displayed on S. aureus RN4220 (VHH, also called anti-NP-VHH4) VHH: QVQLVESGGGLVQAGASLRLSCATSGRTLSGYAMGWFRQAPGKERELTAAISWSGISTYYTDSVKGRFTISRDNAKNTVYLQMNSLNSEDTGVYYCVADVGWPLRADRGSWGQGTQVTISS | binds
7 | VHH52.1 displayed on S. aureus RN4220 (VHH, also called anti-NP-VHH6) VHH: QLQLVESGGGLVQAGGSLRLSCAASGSTFSNYAMGWFRQAPGKEREFVASIRWIGGSTRYADSVKGRFTTSRDNAKNALYLQMNSLKTEDTAVYYCAASLGYSASYASGYDYWGQGTQVTVSS | binds
